{"source": "patent US20230382976", "about": "“APTAMER ASSEMBLIES FOR PROTEIN CROSSLINKING” (UNIVERSITY OF FLORIDA RESEARCH FOUNDATION, INC., published 2023)", "binders": {"B1": {"name": "random 90 nt ssDNA (ssDNA)", "DNA": "AATTTAGGAGCTGAAGGTCAGGGCACCAGCAGCCTTTGGAAGCCTACAGGACAACAGTCAGCCTGGCTAGAAAAAAAAACAATGTCACAG"}, "B2": {"name": "VEGF-R2 aptamer monovalent (ssDNA)", "DNA": "GATGTGAGTGTGTGACGAGCTACGACGTCTGGTGTAATTTATAAAGACACTGTGTATATCAACAACAGAACAAGGAAAGG"}, "B3": {"name": "scrambled 80 nt aptamer (ssDNA)", "DNA": "TAAAACGCGCTTAAGCTGGTGTTACTCGAGCGGTCTTCTATTGAAATAATTTCTGAAGGCACACGACATATGATCTTCAG", "modifications": "5' amino C6 (5AmMC6)"}, "B4": {"name": "random ssDNA oligomer monovalent 80 nt (ssDNA)", "DNA": "TAATGAGAAGTATGTGTAGAGTCAATGAGATACGCAATTGGGAAGACAAGAGTATTGACTCGGACTGAGTACAATCGTCC"}}, "key": {"Type I collagen [1]": {"target": "T1, Type I collagen (Rattus norvegicus, UniProt P02454;P02466 P02454:152-1207,P02466:86-1125)", "T1 sequence (P02454 152-1207, chain 1 of 2)": "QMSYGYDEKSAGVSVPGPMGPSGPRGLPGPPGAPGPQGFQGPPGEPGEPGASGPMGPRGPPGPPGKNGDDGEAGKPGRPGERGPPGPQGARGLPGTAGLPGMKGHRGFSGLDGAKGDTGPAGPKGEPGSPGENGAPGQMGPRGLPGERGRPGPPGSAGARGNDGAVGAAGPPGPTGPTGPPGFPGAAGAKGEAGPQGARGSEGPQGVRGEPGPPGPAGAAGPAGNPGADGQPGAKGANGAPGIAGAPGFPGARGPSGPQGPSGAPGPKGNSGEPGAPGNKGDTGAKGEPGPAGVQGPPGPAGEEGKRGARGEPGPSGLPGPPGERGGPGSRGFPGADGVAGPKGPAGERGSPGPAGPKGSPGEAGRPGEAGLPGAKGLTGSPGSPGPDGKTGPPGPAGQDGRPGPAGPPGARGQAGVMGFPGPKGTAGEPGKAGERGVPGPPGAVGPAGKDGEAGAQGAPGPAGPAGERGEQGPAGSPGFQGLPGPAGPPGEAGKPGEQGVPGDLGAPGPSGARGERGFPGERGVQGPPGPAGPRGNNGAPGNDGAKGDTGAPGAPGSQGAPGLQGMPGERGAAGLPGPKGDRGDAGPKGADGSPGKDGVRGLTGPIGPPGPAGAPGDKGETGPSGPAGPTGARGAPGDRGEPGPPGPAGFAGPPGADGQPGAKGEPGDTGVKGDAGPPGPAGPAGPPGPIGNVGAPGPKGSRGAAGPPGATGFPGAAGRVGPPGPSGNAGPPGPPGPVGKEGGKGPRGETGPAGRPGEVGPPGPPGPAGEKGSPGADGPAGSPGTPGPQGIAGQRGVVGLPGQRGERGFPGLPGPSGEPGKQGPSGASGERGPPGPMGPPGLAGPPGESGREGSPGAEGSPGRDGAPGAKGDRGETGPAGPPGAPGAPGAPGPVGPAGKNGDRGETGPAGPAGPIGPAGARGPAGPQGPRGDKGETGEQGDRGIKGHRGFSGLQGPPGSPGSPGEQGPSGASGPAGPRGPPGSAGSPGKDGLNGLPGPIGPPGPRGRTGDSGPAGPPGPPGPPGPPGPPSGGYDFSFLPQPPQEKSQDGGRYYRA", "T1 sequence (P02466 86-1125, chain 2 of 2)": "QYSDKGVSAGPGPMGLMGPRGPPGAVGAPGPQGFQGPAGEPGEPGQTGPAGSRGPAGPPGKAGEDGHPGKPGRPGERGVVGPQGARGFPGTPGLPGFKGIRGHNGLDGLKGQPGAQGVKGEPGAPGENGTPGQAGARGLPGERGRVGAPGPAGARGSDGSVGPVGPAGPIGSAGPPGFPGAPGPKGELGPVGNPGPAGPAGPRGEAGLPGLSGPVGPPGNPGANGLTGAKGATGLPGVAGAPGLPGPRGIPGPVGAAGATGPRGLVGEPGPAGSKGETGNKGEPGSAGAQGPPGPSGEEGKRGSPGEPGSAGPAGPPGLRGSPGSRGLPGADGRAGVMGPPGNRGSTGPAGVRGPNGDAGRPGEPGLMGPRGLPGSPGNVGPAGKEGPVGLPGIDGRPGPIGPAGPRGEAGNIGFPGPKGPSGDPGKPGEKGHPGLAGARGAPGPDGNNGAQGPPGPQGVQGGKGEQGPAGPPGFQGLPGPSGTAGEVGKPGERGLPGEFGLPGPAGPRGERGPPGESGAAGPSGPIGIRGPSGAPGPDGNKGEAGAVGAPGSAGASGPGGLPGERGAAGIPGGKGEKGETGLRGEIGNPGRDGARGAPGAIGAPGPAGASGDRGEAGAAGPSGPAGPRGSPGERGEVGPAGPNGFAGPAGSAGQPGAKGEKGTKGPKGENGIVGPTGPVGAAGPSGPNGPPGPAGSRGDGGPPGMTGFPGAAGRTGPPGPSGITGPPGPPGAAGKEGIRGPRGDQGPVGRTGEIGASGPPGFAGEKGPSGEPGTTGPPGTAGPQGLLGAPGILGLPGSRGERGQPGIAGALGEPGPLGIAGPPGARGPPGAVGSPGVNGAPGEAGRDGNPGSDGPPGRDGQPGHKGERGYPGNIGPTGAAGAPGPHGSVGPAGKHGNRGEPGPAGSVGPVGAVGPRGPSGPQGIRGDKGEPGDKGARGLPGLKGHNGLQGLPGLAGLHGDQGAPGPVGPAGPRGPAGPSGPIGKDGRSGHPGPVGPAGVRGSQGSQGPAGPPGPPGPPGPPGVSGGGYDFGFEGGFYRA", "assay": "maximum binding at 23.16% mass fraction ssDNA; SYBR Safe depletion assay, deionized water, RT", "details": "tags: rat tail tendon, Corning; chain copies: 2,1"}, "Type I collagen [2]": {"target": "T1, Type I collagen", "assay": "maximum binding at 12.27% mass fraction ssDNA; SYBR Safe depletion assay, deionized water, RT", "details": "tags: rat tail tendon, Corning; chain copies: 2,1"}, "Type I collagen [3]": {"target": "T1, Type I collagen", "assay": "maximum binding at 29.32% mass fraction ssDNA; SYBR Safe depletion assay, deionized water, RT", "details": "tags: rat tail tendon, Corning; chain copies: 2,1"}, "Type I collagen [4]": {"target": "T1, Type I collagen", "assay": "maximum binding at 17.83% mass fraction ssDNA; SYBR Safe depletion assay, deionized water, RT", "details": "tags: rat tail tendon, Corning; chain copies: 2,1"}, "Type I collagen [5]": {"target": "T1, Type I collagen", "assay": "fiber formation, same as random sequence; none above 50% vol collagen", "details": "tags: rat tail tendon, Corning; chain copies: 2,1", "description": "(§1) A VEGF-R2 targeting aptamer sequence was used in both a monovalent (single sequence) and divalent form (two single sequences tethered by a (PEG)6 linker). For all studies, we used a random sequence ssDNA of the same length and GC content as a control to determine the effect of the targeting and functionality of the DNA aptamer as compared to the effect of purely ssDNA, respectively.32 The VEGF-R2 targeting aptamer monovalent sequence is: ‘5-GATGTGAGTGTGTGACGAGCTACGACGTCTGGTGTAATTTATAAAGACACTGTGTATATCAACAACAGAACAAGGAAAGG-3’ (SEQ ID NO:14) .The random ssDNA oligomer monovalent sequence is: ‘5-TAATGAGAAGTATGTGTAGAGTCAATGAGATACGCAATTGGGAAGACAAGAGTATTGACTCGGACTGAGTACAATCGTCC-3’ (SEQ ID NO:15). […]\n(§2) Fiber morphology for the different volume fractions of type I collagen and DNA aptamer was qualitatively assessed by phase and fluorescence microscopy using immobilized fibers. For fluorescence microscopy, immobilized fibers were stained with SYBR Safe DNA stain (Invitrogen) diluted at a 1:10,000 volume ratio in deionized water. […] To quantify surface coverage, full well images were taken with a Keyence BZ-X700 fluorescence microscope."}, "Type I collagen [6]": {"target": "T1, Type I collagen", "assay": "binding capacity identical to HAP aptamer; fibers form above about 5 pmol ssDNA/ug collagen", "details": "tags: rat tail tendon, Corning; chain copies: 2,1", "method": "(§3) Complexes spontaneously formed upon mixing and were incubated at room temperature overnight followed by storage in solution at 4° C. until needed.\n(§4) The amount of ssDNA in the DNA aptamer-collagen complex self-assembled fibers for different volume fractions of type I collagen and ssDNA oligomer was assessed fluorometrically by measuring the intensity of a fluorescent DNA stain. Solutions of different volume fractions were diluted at a 1:2 volume ratio of fiber solution to SYBR Safe DNA stain (Invitrogen). The stain concentrate was diluted first at a 1:10,000 volume ratio in deionized water. Then the mixtures were incubated protected from light for 30 minutes at room-temperature. After incubation, the mixtures were centrifuged at 2000 g for five minutes. Supernatant was plated in duplicate into black walled 96 well microplates and fluorescence intensity was measured by exciting at 488 nm and detecting at 520 nm using a UV-Vis Synergy H1 plate reader (BioTek). ssDNA in the supernatant was quantified using a standard curve fit with a 4-parameter logistic regression to correlate fluorescent intensity to ssDNA concentration. Individual standard curves were prepared for each ssDNA to account for any differences in DNA stain interaction with the two ssDNA sequences due to their secondary structure."}, "Type I collagen [7]": {"target": "T1, Type I collagen", "assay": "percent DNA bound rises with collagen; SYBR Safe depletion after centrifugation; fibers at 10-30% vol collagen", "details": "tags: rat tail tendon, Corning; chain copies: 2,1; hairpins predicted", "method": "In 96 well plate, mixtures of scrambled aptamer (1 μM) were mixed with rat tail type I collagen (0.3 mg/mL). Mixtures were at 25% increments from 0% to 100% volume fraction collagen with 1 replicate. Solutions were incubated at room temperature for 2 hours and then SYBR Safe DNA stain was added in a 2:1 ratio to the aptamer-collagen solutions and incubated for 30 minutes in the dark at room temperature. The solutions were centrifuged at 2000 g for 5 minutes and the supernatant was added to a 96 well plate giving 2 repeats per solution. Fluorescent intensity was measured by exciting at 488 nm and reading emission at 520 nm."}, "Type I collagen [8]": {"target": "T1, Type I collagen", "assay": "binding capacity identical to random ssDNA; fibers form above about 5 pmol ssDNA/ug collagen", "details": "tags: rat tail tendon, Corning; chain copies: 2,1", "method": "as §3, §4"}, "Type I collagen [9]": {"target": "T1, Type I collagen", "assay": "fiber formation by microscopy, deionized water", "details": "tags: rat tail tendon, Corning; chain copies: 2,1"}, "Type I collagen [10]": {"target": "T1, Type I collagen", "assay": "fiber formation, same as VEGF-R2 aptamer", "details": "tags: rat tail tendon, Corning; chain copies: 2,1", "description": "as §1, §2"}}}
{"binder": "CAGAGAATCTCCATTTTAGCACTTACCTGTGAC (ssDNA)", "note": "[random 33 nt ssDNA]", "values": [{"measurement": "binding result", "setting": "Type I collagen [1]", "value": "binds"}]}
{"binder": "GGAGCTGTTGGCGTA (ssDNA)", "note": "[random 15 nt ssDNA]", "values": [{"measurement": "binding result", "setting": "Type I collagen [2]", "value": "binds"}]}
{"binder": "TCCCGCGAAATTAATACGACAGCACCACTTTTGGAGGGAGATTTC (ssDNA)", "note": "[random 45 nt ssDNA]", "values": [{"measurement": "binding result", "setting": "Type I collagen [3]", "value": "binds"}]}
{"binder": "B1", "values": [{"measurement": "binding result", "setting": "Type I collagen [4]", "value": "binds"}]}
{"binder": "B2", "values": [{"measurement": "binding result", "setting": "Type I collagen [5]", "value": "binds"}]}
{"binder": "TAAAACGCGCTTAAGCTGGTGTTACTCGAGCGGTCTTCTA (ssDNA)", "note": "[random ssDNA 40 nt (Sequence R)]", "values": [{"measurement": "binding result", "setting": "Type I collagen [6]", "value": "binds"}]}
{"binder": "B3", "values": [{"measurement": "binding result", "setting": "Type I collagen [7]", "value": "binds"}]}
{"binder": "CAGGTGGGCGCGCTGTCGTGGGTGCTCGGGTGCGGTTGGG (ssDNA)", "note": "[HAP aptamer (Aptamer G)]", "values": [{"measurement": "binding result", "setting": "Type I collagen [8]", "value": "binds"}]}
{"binder": "CAGGTGCGCGCGCTGTCGTGCGTGCTCGCGTGCGGTTGCG (ssDNA)", "note": "[Aptamer G-]", "values": [{"measurement": "binding result", "setting": "Type I collagen [9]", "value": "binds"}]}
{"binder": "CAGGTGGGGGCGCTGTCGTGGGGGCTCGGGGGCGGTGGGG (ssDNA)", "note": "[Aptamer G+]", "values": [{"measurement": "binding result", "setting": "Type I collagen [9]", "value": "binds"}]}
{"binder": "B4", "values": [{"measurement": "binding result", "setting": "Type I collagen [10]", "value": "binds"}]}
